# From patent publication EP3088890B1 (Chugai Seiyaku Kabushiki Kaisha, dated 2020)
# T1: GPC3 peptide 401-430 (SEQ ID NO: 21) (human)
# T1 construct: Synthetic 30-residue peptide of GPC3
# T1 peptide: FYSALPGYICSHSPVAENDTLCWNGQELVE
# T2: GPC3 peptide 181-210 (SEQ ID NO: 10) (human)
# T2 construct: Synthetic 30-residue peptide of GPC3
# T2 peptide: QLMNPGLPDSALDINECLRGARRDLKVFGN
# T3: GPC3 peptide 21-50 (SEQ ID NO: 2) (human)
# T3 construct: Synthetic 30-residue peptide of GPC3
# T3 peptide: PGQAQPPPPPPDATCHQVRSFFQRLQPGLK
# T4: GPC3 peptide 541-570 (SEQ ID NO: 28) (human)
# T4 construct: Synthetic 30-residue peptide of GPC3
# T4 peptide: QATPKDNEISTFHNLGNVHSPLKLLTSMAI
# T5: GPC3 peptide 61-90 (SEQ ID NO: 4) (human)
# T5 construct: Synthetic 30-residue peptide of GPC3
# T5 peptide: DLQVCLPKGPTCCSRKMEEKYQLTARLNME
# T6: GPC3 peptide 301-330 (SEQ ID NO: 16) (human)
# T6 construct: Synthetic 30-residue peptide of GPC3
# T6 peptide: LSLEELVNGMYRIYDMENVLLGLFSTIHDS
# T7: GPC3 peptide 1-30 (SEQ ID NO: 1) (human)
# T7 construct: Synthetic 30-residue peptide of GPC3
# T7 peptide: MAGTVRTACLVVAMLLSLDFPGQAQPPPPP
# T8: GPC3 peptide 501-530 (SEQ ID NO: 26) (human)
# T8 construct: Synthetic 30-residue peptide of GPC3
# T8 peptide: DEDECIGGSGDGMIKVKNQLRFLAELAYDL
# T9: GPC3 peptide 441-470 (SEQ ID NO: 23) (human)
# T9 construct: Synthetic 30-residue peptide of GPC3
# T9 peptide: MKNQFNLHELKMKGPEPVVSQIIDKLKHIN
# T10: GPC3 peptide 41-70 (SEQ ID NO: 3) (human)
# T10 construct: Synthetic 30-residue peptide of GPC3
# T10 peptide: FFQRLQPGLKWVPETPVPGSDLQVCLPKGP
# T11: GPC3 peptide 481-510 (SEQ ID NO: 25) (human)
# T11 construct: Synthetic 30-residue peptide of GPC3
# T11 peptide: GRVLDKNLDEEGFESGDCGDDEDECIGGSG
# T12: GPC3 peptide 421-450 (SEQ ID NO: 22) (human)
# T12 construct: Synthetic 30-residue peptide of GPC3
# T12 peptide: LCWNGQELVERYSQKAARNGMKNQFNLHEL
# T13: GPC3 peptide 281-310 (SEQ ID NO: 15) (human)
# T13 construct: Synthetic 30-residue peptide of GPC3
# T13 peptide: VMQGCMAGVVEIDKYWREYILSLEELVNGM
# T14: GPC3 peptide 241-270 (SEQ ID NO: 13) (human)
# T14 construct: Synthetic 30-residue peptide of GPC3
# T14 peptide: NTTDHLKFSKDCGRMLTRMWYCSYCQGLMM
# T15: GPC3 peptide 121-150 (SEQ ID NO: 7) (human)
# T15 construct: Synthetic 30-residue peptide of GPC3
# T15 peptide: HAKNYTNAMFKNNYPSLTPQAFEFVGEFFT
# T16: GPC3 peptide 201-230 (SEQ ID NO: 11) (human)
# T16 construct: Synthetic 30-residue peptide of GPC3
# T16 peptide: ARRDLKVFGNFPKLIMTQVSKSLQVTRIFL
# T17: GPC3 peptide 221-250 (SEQ ID NO: 12) (human)
# T17 construct: Synthetic 30-residue peptide of GPC3
# T17 peptide: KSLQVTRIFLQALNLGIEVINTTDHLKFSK
# T18: GPC3 peptide 161-190 (SEQ ID NO: 9) (human)
# T18 construct: Synthetic 30-residue peptide of GPC3
# T18 peptide: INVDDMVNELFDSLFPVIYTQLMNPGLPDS
# T19: GPC3 peptide 381-410 (SEQ ID NO: 20) (human)
# T19 construct: Synthetic 30-residue peptide of GPC3
# T19 peptide: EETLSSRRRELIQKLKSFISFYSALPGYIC
# T20: GPC3 peptide 101-130 (SEQ ID NO: 6) (human)
# T20 construct: Synthetic 30-residue peptide of GPC3
# T20 peptide: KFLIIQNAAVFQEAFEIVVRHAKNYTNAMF
# T21: GPC3 peptide 341-370 (SEQ ID NO: 18) (human)
# T21 construct: Synthetic 30-residue peptide of GPC3
# T21 peptide: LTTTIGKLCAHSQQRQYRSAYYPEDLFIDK
# T22: GPC3 peptide 361-390 (SEQ ID NO: 19) (human)
# T22 construct: Synthetic 30-residue peptide of GPC3
# T22 peptide: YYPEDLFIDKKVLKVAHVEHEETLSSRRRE
# T23: GPC3 peptide 141-170 (SEQ ID NO: 8) (human)
# T23 construct: Synthetic 30-residue peptide of GPC3
# T23 peptide: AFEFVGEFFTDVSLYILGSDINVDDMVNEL
# T24: GPC3 peptide 521-550 (SEQ ID NO: 27) (human)
# T24 construct: Synthetic 30-residue peptide of GPC3
# T24 peptide: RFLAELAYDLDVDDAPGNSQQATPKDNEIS
# T25: GPC3 peptide 461-490 (SEQ ID NO: 24) (human)
# T25 construct: Synthetic 30-residue peptide of GPC3
# T25 peptide: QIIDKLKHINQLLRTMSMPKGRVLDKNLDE
# T26: GPC3 peptide 551-580 (SEQ ID NO: 29) (human)
# T26 construct: Synthetic 30-residue peptide of GPC3
# T26 peptide: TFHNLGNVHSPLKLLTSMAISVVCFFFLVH
# T27: GPC3 peptide 321-350 (SEQ ID NO: 17) (human)
# T27 construct: Synthetic 30-residue peptide of GPC3
# T27 peptide: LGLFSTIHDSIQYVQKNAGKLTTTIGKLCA
# B1: GT607 antibody (antibody, IgG1, V domains shown)
# VH: EVQLVESGGDVVRPGGSLKLSCAASGFTFSSYGMSWVRQLPDKRLEWVASVGNGGSYRYYPENLKGRFTISRDNTKNTLYLQISGLKSEDTAIYYCARRGAFPYFDVWGAGTTVTVSS
# VL: QIVLTQSPAIMSASPGEKVTLACSASSSVTYMHWYQQKSGTSPKRWIYETSKLASGVPPRFSGSGSGTSYSLTISTMEAEDAATYYCQQWSSNPLTFGAGTKLELKR
# Target: T1, GPC3 peptide 401-430 (SEQ ID NO: 21)
# Test: peptide ELISA, peptide on plate
row,binding result,Binder
1,no binding (tested: 2 µg/mL),B1

# Target: T2, GPC3 peptide 181-210 (SEQ ID NO: 10)
# Test: peptide ELISA, peptide on plate
row,binding result,Binder
1,no binding (tested: 2 µg/mL),B1

# Target: T3, GPC3 peptide 21-50 (SEQ ID NO: 2)
# Test: peptide ELISA, peptide on plate
row,binding result,Binder
1,no binding (tested: 2 µg/mL),B1

# Target: T4, GPC3 peptide 541-570 (SEQ ID NO: 28)
# Test: peptide ELISA, peptide on plate
row,binding result,Binder
1,no binding (tested: 2 µg/mL),B1

# Target: T5, GPC3 peptide 61-90 (SEQ ID NO: 4)
# Test: peptide ELISA, peptide on plate
row,binding result,Binder
1,no binding (tested: 2 µg/mL),B1

# Target: T6, GPC3 peptide 301-330 (SEQ ID NO: 16)
# Test: peptide ELISA, peptide on plate
row,binding result,Binder
1,no binding (tested: 2 µg/mL),B1

# Target: T7, GPC3 peptide 1-30 (SEQ ID NO: 1)
# Test: peptide ELISA, peptide on plate
row,binding result,Binder
1,no binding (tested: 2 µg/mL),B1

# Target: T8, GPC3 peptide 501-530 (SEQ ID NO: 26)
# Test: peptide ELISA, peptide on plate
row,binding result,Binder
1,no binding (tested: 2 µg/mL),B1

# Target: T9, GPC3 peptide 441-470 (SEQ ID NO: 23)
# Test: peptide ELISA, peptide on plate
row,binding result,Binder
1,no binding (tested: 2 µg/mL),B1

# Target: T10, GPC3 peptide 41-70 (SEQ ID NO: 3)
# Test: peptide ELISA, peptide on plate
row,binding result,Binder
1,no binding (tested: 2 µg/mL),B1

# Target: T11, GPC3 peptide 481-510 (SEQ ID NO: 25)
# Test: peptide ELISA, peptide on plate
row,binding result,Binder
1,no binding (tested: 2 µg/mL),B1

# Target: T12, GPC3 peptide 421-450 (SEQ ID NO: 22)
# Test: peptide ELISA, peptide on plate
row,binding result,Binder
1,no binding (tested: 2 µg/mL),B1

# Target: T13, GPC3 peptide 281-310 (SEQ ID NO: 15)
# Test: peptide ELISA, peptide on plate
row,binding result,Binder
1,no binding (tested: 2 µg/mL),B1

# Target: T14, GPC3 peptide 241-270 (SEQ ID NO: 13)
# Test: peptide ELISA, peptide on plate
row,binding result,Binder
1,no binding (tested: 2 µg/mL),B1

# Target: T15, GPC3 peptide 121-150 (SEQ ID NO: 7)
# Test: peptide ELISA, peptide on plate
row,binding result,Binder
1,no binding (tested: 2 µg/mL),B1

# Target: T16, GPC3 peptide 201-230 (SEQ ID NO: 11)
# Test: peptide ELISA, peptide on plate
row,binding result,Binder
1,no binding (tested: 2 µg/mL),B1

# Target: T17, GPC3 peptide 221-250 (SEQ ID NO: 12)
# Test: peptide ELISA, peptide on plate
row,binding result,Binder
1,no binding (tested: 2 µg/mL),B1

# Target: T18, GPC3 peptide 161-190 (SEQ ID NO: 9)
# Test: peptide ELISA, peptide on plate
row,binding result,Binder
1,no binding (tested: 2 µg/mL),B1

# Target: T19, GPC3 peptide 381-410 (SEQ ID NO: 20)
# Test: peptide ELISA, peptide on plate
row,binding result,Binder
1,no binding (tested: 2 µg/mL),B1

# Target: T20, GPC3 peptide 101-130 (SEQ ID NO: 6)
# Test: peptide ELISA, peptide on plate
row,binding result,Binder
1,no binding (tested: 2 µg/mL),B1

# Target: T21, GPC3 peptide 341-370 (SEQ ID NO: 18)
# Test: peptide ELISA, peptide on plate
row,binding result,Binder
1,no binding (tested: 2 µg/mL),B1

# Target: T22, GPC3 peptide 361-390 (SEQ ID NO: 19)
# Test: peptide ELISA, peptide on plate
row,binding result,Binder
1,no binding (tested: 2 µg/mL),B1

# Target: T23, GPC3 peptide 141-170 (SEQ ID NO: 8)
# Test: peptide ELISA, peptide on plate
row,binding result,Binder
1,no binding (tested: 2 µg/mL),B1

# Target: T24, GPC3 peptide 521-550 (SEQ ID NO: 27)
# Test: peptide ELISA, peptide on plate
row,binding result,Binder
1,no binding (tested: 2 µg/mL),B1

# Target: T25, GPC3 peptide 461-490 (SEQ ID NO: 24)
# Test: peptide ELISA, peptide on plate
row,binding result,Binder
1,no binding (tested: 2 µg/mL),B1

# Target: T26, GPC3 peptide 551-580 (SEQ ID NO: 29)
# Test: peptide ELISA, peptide on plate
row,binding result,Binder
1,no binding (tested: 2 µg/mL),B1

# Target: T27, GPC3 peptide 321-350 (SEQ ID NO: 17)
# Test: peptide ELISA, peptide on plate
row,binding result,Binder
1,no binding (tested: 2 µg/mL),B1

# Target: T28, AW3, C-terminally His-tagged recombinant product of positions 1 to 218 of GPC3 (human, UniProt P51654 25-218)
# T28 construct: Expressed in CHO cells, cell pellets used in Western blot; The range is as printed and starts at position 1; not shown: C-terminal His tag
# Test: Western blot, pellets of CHO cells expressing the product
# T28 sequence (P51654 25-218): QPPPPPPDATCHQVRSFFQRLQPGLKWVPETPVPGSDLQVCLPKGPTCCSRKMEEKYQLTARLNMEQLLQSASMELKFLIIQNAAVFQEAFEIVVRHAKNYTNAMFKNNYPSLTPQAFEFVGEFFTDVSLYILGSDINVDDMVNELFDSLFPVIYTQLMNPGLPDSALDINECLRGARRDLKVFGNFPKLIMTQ
row,binding result,Binder
1,no binding,B1

# Target: T29, AW2, C-terminally His-tagged recombinant product of positions 1 to 196 of GPC3 (human, UniProt P51654 25-196)
# T29 construct: Expressed in CHO cells, cell pellets used in Western blot; The range is as printed and starts at position 1; also called AW2 (1-196); not shown: C-terminal His tag
# Test: as above
# T29 sequence (P51654 25-196): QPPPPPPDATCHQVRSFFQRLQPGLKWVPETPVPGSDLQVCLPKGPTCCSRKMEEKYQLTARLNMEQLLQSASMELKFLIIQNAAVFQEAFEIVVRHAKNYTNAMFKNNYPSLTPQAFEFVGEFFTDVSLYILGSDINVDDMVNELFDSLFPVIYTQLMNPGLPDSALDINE
row,binding result,Binder
1,no binding,B1
